Holding throughout (experiment): cell-based or functional assay
For experiment [1], the target named is T1, human GLP-1 receptor (human, UniProt P43220 24-463).
Experiment [2] addresses T2, human glucagon receptor (human, UniProt P47871 26-477).
Experiment [3] has as its target T1, human GLP-1 receptor. This is another data set of the same source.
Experiment [4] has as its target T2, human glucagon receptor. This is another data set of the same source.

Non-standard residues stand in square brackets, D forms with d. No end group written: not given here. Ala(4-thiazolyl) = N[C@@H](Cc1cscn1)C(=O)O; 1Nal = N[C@@H](Cc1cccc2ccccc12)C(=O)O; Phg = N[C@H](C(=O)O)c1ccccc1; Tle = CC(C)(C)[C@H](N)C(=O)O; Nle = CCCC[C@H](N)C(=O)O

T2 sequence (P47871 26-477): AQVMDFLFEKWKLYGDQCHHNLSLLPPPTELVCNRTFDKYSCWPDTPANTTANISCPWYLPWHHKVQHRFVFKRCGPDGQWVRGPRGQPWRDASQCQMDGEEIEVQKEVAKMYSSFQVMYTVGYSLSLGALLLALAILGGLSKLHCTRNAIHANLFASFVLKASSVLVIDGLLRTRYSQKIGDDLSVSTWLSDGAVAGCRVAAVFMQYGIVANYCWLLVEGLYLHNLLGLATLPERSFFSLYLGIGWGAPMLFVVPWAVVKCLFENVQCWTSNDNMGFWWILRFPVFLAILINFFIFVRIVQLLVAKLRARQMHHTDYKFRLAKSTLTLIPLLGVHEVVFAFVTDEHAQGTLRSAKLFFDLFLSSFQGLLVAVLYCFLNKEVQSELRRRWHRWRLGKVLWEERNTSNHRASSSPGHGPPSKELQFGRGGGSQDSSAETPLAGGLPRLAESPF

B1: SEQ ID NO: 26 (peptide)
peptide: HSQGTFTSDLSKQ[Nle]ESRRAQDFIEWLLATGPESGAPPPS-OH
modifications: N-terminus assumed
SMILES: CCCC[C@H](NC(=O)[C@H](CCC(N)=O)NC(=O)[C@H](CCCCN)NC(=O)[C@H](CO)NC(=O)[C@H](CC(C)C)NC(=O)[C@H](CC(=O)O)NC(=O)[C@H](CO)NC(=O)[C@@H](NC(=O)[C@H](Cc1ccccc1)NC(=O)[C@@H](NC(=O)CNC(=O)[C@H](CCC(N)=O)NC(=O)[C@H](CO)NC(=O)[C@@H](N)Cc1c[nH]cn1)[C@@H](C)O)[C@@H](C)O)C(=O)N[C@@H](CCC(=O)O)C(=O)N[C@@H](CO)C(=O)N[C@@H](CCCNC(=N)N)C(=O)N[C@@H](CCCNC(=N)N)C(=O)N[C@@H](C)C(=O)N[C@@H](CCC(N)=O)C(=O)N[C@@H](CC(=O)O)C(=O)N[C@@H](Cc1ccccc1)C(=O)N[C@H](C(=O)N[C@@H](CCC(=O)O)C(=O)N[C@@H](Cc1c[nH]c2ccccc12)C(=O)N[C@@H](CC(C)C)C(=O)N[C@@H](CC(C)C)C(=O)N[C@@H](C)C(=O)N[C@H](C(=O)NCC(=O)N1CCC[C@H]1C(=O)N[C@@H](CCC(=O)O)C(=O)N[C@@H](CO)C(=O)NCC(=O)N[C@@H](C)C(=O)N1CCC[C@H]1C(=O)N1CCC[C@H]1C(=O)N1CCC[C@H]1C(=O)N[C@@H](CO)C(=O)O)[C@@H](C)O)[C@@H](C)CC
In the case of B1, the “EC50 hGLP-1R, cAMP formation” value in the experiment with human GLP-1 receptor [1] was determined as 1.24 nM. For the same molecule, in the experiment with human glucagon receptor [2], the “EC50 hGlucagon-R, cAMP formation” value was found to be 0.0094 nM.
Consider HSQGTFTSDYSKQLESRRAQEFIEWLLATGPESGAPPPS-OH [SEQ ID NO: 29], for which the “EC50 hGLP-1R, cAMP formation” value in the experiment with human GLP-1 receptor [1] is 0.145 nM. For the same molecule, the “EC50 hGlucagon-R, cAMP formation” value with human glucagon receptor [2] was found to be 0.0009 nM.
Regarding HSQGTFTSDVSKQLESRRAQEFIEWLLATGPESGAPPPS-OH [SEQ ID NO: 30], in the experiment with human GLP-1 receptor [1], the “EC50 hGLP-1R, cAMP formation” value stood at 1.18 nM. For the same molecule, in the experiment with human glucagon receptor [2], the “EC50 hGlucagon-R, cAMP formation” value came out at 0.0065 nM.
Turning to HSQGTFTSDLSKQLESRRAQDFIEWLLATGPESGAPPPS-OH [SEQ ID NO: 35], the “EC50 hGLP-1R, cAMP formation” value with human GLP-1 receptor [1] was found to be 0.934 nM. Also, in the experiment with human glucagon receptor [2], the “EC50 hGlucagon-R, cAMP formation” value was found to be 0.0071 nM.
Regarding HSQGTFTSDISKQLESRRAQEFIEWLLATGPESGAPPPS-OH [SEQ ID NO: 31], the “EC50 hGLP-1R, cAMP formation” value with human GLP-1 receptor [1] was 0.941 nM. Also, the “EC50 hGlucagon-R, cAMP formation” value in the experiment with human glucagon receptor [2] amounted to 0.0041 nM.

B2: SEQ ID NO: 33 (peptide)
peptide: HSQGTFTSD[1Nal]SKQLESRRAQEFIEWLLATGPESGAPPPS-OH
modifications: N-terminus assumed
SMILES: CC[C@H](C)[C@H](NC(=O)[C@H](Cc1ccccc1)NC(=O)[C@H](CCC(=O)O)NC(=O)[C@H](CCC(N)=O)NC(=O)[C@H](C)NC(=O)[C@H](CCCNC(=N)N)NC(=O)[C@H](CCCNC(=N)N)NC(=O)[C@H](CO)NC(=O)[C@H](CCC(=O)O)NC(=O)[C@H](CC(C)C)NC(=O)[C@H](CCC(N)=O)NC(=O)[C@H](CCCCN)NC(=O)[C@H](CO)NC(=O)[C@H](Cc1cccc2ccccc12)NC(=O)[C@H](CC(=O)O)NC(=O)[C@H](CO)NC(=O)[C@@H](NC(=O)[C@H](Cc1ccccc1)NC(=O)[C@@H](NC(=O)CNC(=O)[C@H](CCC(N)=O)NC(=O)[C@H](CO)NC(=O)[C@@H](N)Cc1c[nH]cn1)[C@@H](C)O)[C@@H](C)O)C(=O)N[C@@H](CCC(=O)O)C(=O)N[C@@H](Cc1c[nH]c2ccccc12)C(=O)N[C@@H](CC(C)C)C(=O)N[C@@H](CC(C)C)C(=O)N[C@@H](C)C(=O)N[C@H](C(=O)NCC(=O)N1CCC[C@H]1C(=O)N[C@@H](CCC(=O)O)C(=O)N[C@@H](CO)C(=O)NCC(=O)N[C@@H](C)C(=O)N1CCC[C@H]1C(=O)N1CCC[C@H]1C(=O)N1CCC[C@H]1C(=O)N[C@@H](CO)C(=O)O)[C@@H](C)O
For the molecule B2, the “EC50 hGLP-1R, cAMP formation” value with human GLP-1 receptor [1] was found to be 0.159 nM. In the experiment with human glucagon receptor [2], the “EC50 hGlucagon-R, cAMP formation” value stood at 0.0011 nM.
For the molecule HSQGTFTSDLSKQLESRRAQEFIEWLLATGPESGAPPPS-OH [SEQ ID NO: 34], in the experiment with human GLP-1 receptor [1], the “EC50 hGLP-1R, cAMP formation” value was 0.363 nM. Besides, the “EC50 hGlucagon-R, cAMP formation” value with human glucagon receptor [2] turned out to be 0.0014 nM.

B3: SEQ ID NO: 32 (peptide)
peptide: HSQGTFTSD[Phg]SKQLESRRAQEFIEWLLATGPESGAPPPS-OH
modifications: N-terminus assumed
SMILES: CC[C@H](C)[C@H](NC(=O)[C@H](Cc1ccccc1)NC(=O)[C@H](CCC(=O)O)NC(=O)[C@H](CCC(N)=O)NC(=O)[C@H](C)NC(=O)[C@H](CCCNC(=N)N)NC(=O)[C@H](CCCNC(=N)N)NC(=O)[C@H](CO)NC(=O)[C@H](CCC(=O)O)NC(=O)[C@H](CC(C)C)NC(=O)[C@H](CCC(N)=O)NC(=O)[C@H](CCCCN)NC(=O)[C@H](CO)NC(=O)[C@@H](NC(=O)[C@H](CC(=O)O)NC(=O)[C@H](CO)NC(=O)[C@@H](NC(=O)[C@H](Cc1ccccc1)NC(=O)[C@@H](NC(=O)CNC(=O)[C@H](CCC(N)=O)NC(=O)[C@H](CO)NC(=O)[C@@H](N)Cc1c[nH]cn1)[C@@H](C)O)[C@@H](C)O)c1ccccc1)C(=O)N[C@@H](CCC(=O)O)C(=O)N[C@@H](Cc1c[nH]c2ccccc12)C(=O)N[C@@H](CC(C)C)C(=O)N[C@@H](CC(C)C)C(=O)N[C@@H](C)C(=O)N[C@H](C(=O)NCC(=O)N1CCC[C@H]1C(=O)N[C@@H](CCC(=O)O)C(=O)N[C@@H](CO)C(=O)NCC(=O)N[C@@H](C)C(=O)N1CCC[C@H]1C(=O)N1CCC[C@H]1C(=O)N1CCC[C@H]1C(=O)N[C@@H](CO)C(=O)O)[C@@H](C)O
Consider B3, for which, in the experiment with human GLP-1 receptor [1], the “EC50 hGLP-1R, cAMP formation” value amounted to 18.7 nM. The “EC50 hGlucagon-R, cAMP formation” value with human glucagon receptor [2] worked out at 0.012 nM.
The like results for HSQGTFTSDLSKQLESRRAQEFIEWLLAGGPESGAPPPS-OH [SEQ ID NO: 27] were, in that order, 0.0808 nM and 0.0013 nM.

B4: SEQ ID NO: 25 (peptide)
peptide: [Ala(4-thiazolyl)]SQGTFTSD[Tle]SKQ[Nle]ESRRAQEFIEWLLATGPESGAPPPS-OH
modifications: N-terminus assumed
SMILES: CCCC[C@H](NC(=O)[C@H](CCC(N)=O)NC(=O)[C@H](CCCCN)NC(=O)[C@H](CO)NC(=O)[C@@H](NC(=O)[C@H](CC(=O)O)NC(=O)[C@H](CO)NC(=O)[C@@H](NC(=O)[C@H](Cc1ccccc1)NC(=O)[C@@H](NC(=O)CNC(=O)[C@H](CCC(N)=O)NC(=O)[C@H](CO)NC(=O)[C@@H](N)Cc1cscn1)[C@@H](C)O)[C@@H](C)O)C(C)(C)C)C(=O)N[C@@H](CCC(=O)O)C(=O)N[C@@H](CO)C(=O)N[C@@H](CCCNC(=N)N)C(=O)N[C@@H](CCCNC(=N)N)C(=O)N[C@@H](C)C(=O)N[C@@H](CCC(N)=O)C(=O)N[C@@H](CCC(=O)O)C(=O)N[C@@H](Cc1ccccc1)C(=O)N[C@H](C(=O)N[C@@H](CCC(=O)O)C(=O)N[C@@H](Cc1c[nH]c2ccccc12)C(=O)N[C@@H](CC(C)C)C(=O)N[C@@H](CC(C)C)C(=O)N[C@@H](C)C(=O)N[C@H](C(=O)NCC(=O)N1CCC[C@H]1C(=O)N[C@@H](CCC(=O)O)C(=O)N[C@@H](CO)C(=O)NCC(=O)N[C@@H](C)C(=O)N1CCC[C@H]1C(=O)N1CCC[C@H]1C(=O)N1CCC[C@H]1C(=O)N[C@@H](CO)C(=O)O)[C@@H](C)O)[C@@H](C)CC
Turning to B4, in the experiment with human GLP-1 receptor [3], the “EC50 hGLP-1 R [pM], cAMP formation” value stood at 23100 pM. The “EC50 hGLUC R [pM], cAMP formation” value in the experiment with human glucagon receptor [4] was found to be 0.8 pM.
Turning to HSQGTFTSDYSKQLESRRAQEFIEWLLAGGPESGAPPPS-OH [SEQ ID NO: 28], the “EC50 hGLP-1R, cAMP formation” value with human GLP-1 receptor [1] came to 0.0524 nM. Also, the “EC50 hGlucagon-R, cAMP formation” value with human glucagon receptor [2] was 0.001 nM.

Source of the values: patent publication US20150368311A1 (Sanofi, published 2015).
